Consider two proteins from paper PMC7425812 (Nature cell biology, 2020).

What is called stoichiometry N is the number of molecules, sites or subunits per partner or assembly.

Data set [1] deals with the molecule itself. In words: SDS-resistant dimer on SDS-PAGE immunoblot. (In western blotting, separated proteins are transferred to a membrane and probed.)
Data set [2] concerns the molecule itself. In words: SDS-resistant dimer on SDS-PAGE immunoblot. The source holds these as a separate data set.

Where two headings read alike, the source gives them in different places.

B1: FLAG-HA-tagged AKAP95 (FH-AKAP95), wild type (natural protein)
chain: not shown
Regarding B1, the “stoichiometry N” value in data set [1] came to 2.

B2: AKAP95 (endogenous, HeLa cell nuclear extract) (natural protein)
chain: not shown
On to B2, for which the “stoichiometry N” value in data set [2] amounted to 2.
